From patent US6121423, “Reshaped human antibody to human interleukin-6” (Chugai Seiyaku Kabushiki Kaisha, dated 2000)

Target: recombinant human IL-6 (human, UniProt P05231, biotinylated in the binding-inhibition assay (sites not given); unlabelled in the antigen-binding assay)
Test: ELISA, IL-6 captured by MH166
Experimental: An ELISA plate for antigen-binding assay was prepared as follows. A 96-well plate was coated with mouse monoclonal antibody MH166 recognizing a different epitope of human IL-6 from that recognized by SK2 (Matsuda, T. et al., Eur. J. Immunol. 18, 951–956, 1988), and after blocking, recombinant human IL-6 was added thereto. A sample of the chimeric SK2 antibody was sequentially diluted, added to each well, and then an alkaline phosphatase-conjugated goat anti-human IgG antibody (Sigma) was added thereto. After incubation and washing, substrate was added, and absorbance at 405 nm was measured.

binding result: binds
B1: chimeric SK2 antibody NTS (antibody, V domains shown)
VH: QVTLKESGPGILQPSQTLSLTCSFSGFSLSTSGMTVGWIRQPSGKGLEWLAHIWWNDDKYYNPALKGRLTISKDTSNNQVFLKIASVVTADTATYYCARMEDYDEAMDYWGQGTSVTVSS
VL: DIQMTQSPASLSVSVGETVTITCRASENIYSNLAWYQQKQGKSPQLLVYAATYLADGVPSRFSGSGSGTQYSLKINSLQSEDFGSYYCQHFWGTPPFGSGTKLEIK
